The target of data set [1] is cdc2 peptide (amino acids 7 to 20; …). Description: cell-based or functional assay.
In data set [2] the test system is T1, mutated cdc2 peptide with Phe-15 substituted for Tyr-15 (IEKIGEGTFGVVYK).
T1 sequence: IEKIGEGTFGVVYK

Take “p56/p53^lyn tyrosine kinase (from UniProt P07948 2-512) (enzyme)”: the phosphorylation of the cdc2 peptide by anti-Lyn immune complexes from MMC-treated cells against control cells in data set [1] was 2 fold.

Regarding p56/p53^lyn tyrosine kinase, the “phosphorylation of the mutated cdc2 peptide (Tyr-15 to Phe-15) by anti-Lyn immune complexes” value in data set [2] was “there was little phosphorylation of the mutated cdc2 peptide with anti-Lyn complexes from control or MMC-treated cells”.

For the origin of these results see US20060251734A1.
